Numbering of substitutions follows the chain as printed.
B1: 27G8 (antibody, V domains shown)
VH: EVQLVESGGGLVQPGGSLRLSCAASGFTFSSYWMSWVRQASGKGLEWVANIKQDGSEKYYVDSVKGRFTISRDNAKNSLYLQMNSLRAEDTAVYYCAREGGYDWNYADYYGMDVWGQGTTVTVSS
VL: QSVLTQPPSVSEAPRQRVTISCSGSNSNIGNNPVNWYQLFPGRAPKLLIYHDDLLPSGVSDRFSGSRSGTSASLAISGLQSEDETDYYCTAWDDSLNGWVFGGGTKLTVL
notes: Fully human monoclonal from XenoMouse (human IgG2 or IgG4); lambda light chain; PE-conjugated in the cynomolgus study; also called 27G8L; 27G8H
B2: 22B2 (antibody, V domains shown)
VH: EVQLVQSGAEVKEPGESLKISCKGSGYIFTSYWIAWVRQLPGKGLEWMGIIDPNDSDTRYSPSFQGQVTISADKSIHTAYLQWSSLKASDTAMYYCATHRLWLGTLPGGFYIWGQGTMVTVSS
VL: DVQMTQSPSSLSASVGDRVTITCQASQDITDYLNWYQQKPGKAPKLLIYDTSNLEAGVPSRFSGSGSGTDFTFTISSLQPEDIATYYCQQYDILPYSFGQGTDLEIK
notes: Fully human monoclonal from XenoMouse (human IgG2 or IgG4); kappa light chain; also called 22B2K; 22B2H
B3: 26H3 (antibody, V domains shown)
VH: EVQLVQSGAEVKKPGESLKISCKGSGYSFTGYWIGWVRQMPGKGLEWMGIIYPYDSDTRYSPSFQGQVTISADKSINTAYLQWSSLKASDTAMFYCASHRLWLGEFPGPLNIWGQGTMVTVSS
VL: B2 VL with V2I, T30S, D31N, T51A, A56T, S76N, Y87F, I93N, Y96C, D103K
notes: Fully human monoclonal from XenoMouse (human IgG2 or IgG4); kappa light chain; also called 26H3K; 26H3H
B4: 19G6 (antibody, V domains shown)
VH: QVQLVESGGDLVKPGGSLRLSCAASGFTFSDYYMSWIRQAPGKGLEWISYISSSGSTMYYADSVKGRFTISRVNAKNSLYLQMNSLRAEDTAVYYCARDRSSGLVSFDYWGQGTLVTVSS
VL: DIQMTQSPSSLSASVGDRVTISCQASQDINTYLNWYQQKPGKVPKLLIYDASNLETGVPSRFSGSGSGTDFTFTISGLQPEDIATYYCQQFDNLPITFGQGTRLEIK
notes: Fully human monoclonal from XenoMouse (human IgG2 or IgG4); kappa light chain; also called 19G6K; 19G6H
B5: 1A10 (antibody, V domains shown)
VH: QVQLVQSGAEVKKPGASVKVSCKVSGYTLNDLSMHWVRQAPGKGLEWMGGFDPAEGKIISAQKFQDRVTMTDDTSTDTAYMELSSLRSEDSAVYYCATLDFSSWFDPWGQGTLVTVSS
VL: DIQMTQSPSSVSASVGDRVTITCRASQGVSSWLAWYQQKPGMAPKLLIYAASILQSGVPSRFSGSGSGTDFTLTISSLQPEDFATYYCQQANSFPWTFGQGTKVEIK
notes: Fully human monoclonal from XenoMouse XG2kl or XG4kl mice (human IgG2 or IgG4); kappa light chain; also called 1A10K; 1A10H
B6: 3A5 (antibody, V domains shown)
VH: B5 VH
VL: B5 VL with S30I, K103N
notes: Fully human monoclonal from XenoMouse (human IgG2 or IgG4); kappa light chain; also called 3A5K; 3A5H
B7: 26G2 (antibody, V domains shown)
VH: QVQLVESGGGLVKPGGSLRLSCAASGFTFSDYYMSWIRQAPGKGLEWVSYISSIGSAIHYADSVKGRFTISRDNAKNSLYLQMNSLRAEDTAVYYCAREYSSGWAYFDYWGQGTLVTVSS
VL: DIQMTQSPSSVSASVGDRVTITCRASQDISSWLAWYQQKPGTAPKVLIYSASSLQNGVPSRFSGRGSGTDFALTISSLQPEDFATYYCQQADSFPWTFGRGTKVEIK
notes: Fully human monoclonal from XenoMouse (human IgG2 or IgG4); kappa light chain; also called 26G2k; 26G2K
B8: 25C9 (antibody, V domains shown)
VH: B7 VH with S30N, I54S
VL: B7 VL with Q38R, T42K, N56S, R65S, A72T, R100Q
notes: Fully human monoclonal from XenoMouse (human IgG2 or IgG4); kappa light chain; also called 25C9k; 25C9K

These binders were tested against T1, human alpha4beta7 (human, UniProt P13612 34-1032; P26010 20-798) (assay: FACS, biotinylated antibody on human CD4+CD45RA- memory T cells).
T1 construct: whole, on cells; also called a4b7; wt
T1 sequence (P13612 34-1032, chain 1 of 2): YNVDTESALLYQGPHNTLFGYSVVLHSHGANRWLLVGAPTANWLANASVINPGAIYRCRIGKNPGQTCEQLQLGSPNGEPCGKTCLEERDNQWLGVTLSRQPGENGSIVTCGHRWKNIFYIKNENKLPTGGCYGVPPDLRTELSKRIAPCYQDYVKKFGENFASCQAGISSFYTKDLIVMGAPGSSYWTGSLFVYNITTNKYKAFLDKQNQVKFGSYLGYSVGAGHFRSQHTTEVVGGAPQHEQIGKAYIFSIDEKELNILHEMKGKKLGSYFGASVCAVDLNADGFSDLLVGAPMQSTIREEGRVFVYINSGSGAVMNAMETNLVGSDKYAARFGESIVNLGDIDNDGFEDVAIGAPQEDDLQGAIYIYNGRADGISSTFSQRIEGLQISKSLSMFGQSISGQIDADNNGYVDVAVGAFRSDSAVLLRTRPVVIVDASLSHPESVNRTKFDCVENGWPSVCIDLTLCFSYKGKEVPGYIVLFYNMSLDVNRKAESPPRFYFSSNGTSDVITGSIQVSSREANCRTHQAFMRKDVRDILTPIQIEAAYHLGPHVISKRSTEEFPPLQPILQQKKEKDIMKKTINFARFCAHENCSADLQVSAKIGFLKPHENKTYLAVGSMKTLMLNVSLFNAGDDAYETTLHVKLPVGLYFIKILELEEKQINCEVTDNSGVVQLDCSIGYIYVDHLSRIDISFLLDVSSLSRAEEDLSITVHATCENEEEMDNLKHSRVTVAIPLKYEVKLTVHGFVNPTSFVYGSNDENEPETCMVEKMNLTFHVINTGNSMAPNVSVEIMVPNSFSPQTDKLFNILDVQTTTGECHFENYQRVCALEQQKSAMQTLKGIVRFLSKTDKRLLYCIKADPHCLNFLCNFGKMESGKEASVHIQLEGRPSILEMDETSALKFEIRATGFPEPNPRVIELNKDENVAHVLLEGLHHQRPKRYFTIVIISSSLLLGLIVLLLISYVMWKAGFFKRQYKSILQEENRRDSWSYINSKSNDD
T1 sequence (P26010 20-798, chain 2 of 2): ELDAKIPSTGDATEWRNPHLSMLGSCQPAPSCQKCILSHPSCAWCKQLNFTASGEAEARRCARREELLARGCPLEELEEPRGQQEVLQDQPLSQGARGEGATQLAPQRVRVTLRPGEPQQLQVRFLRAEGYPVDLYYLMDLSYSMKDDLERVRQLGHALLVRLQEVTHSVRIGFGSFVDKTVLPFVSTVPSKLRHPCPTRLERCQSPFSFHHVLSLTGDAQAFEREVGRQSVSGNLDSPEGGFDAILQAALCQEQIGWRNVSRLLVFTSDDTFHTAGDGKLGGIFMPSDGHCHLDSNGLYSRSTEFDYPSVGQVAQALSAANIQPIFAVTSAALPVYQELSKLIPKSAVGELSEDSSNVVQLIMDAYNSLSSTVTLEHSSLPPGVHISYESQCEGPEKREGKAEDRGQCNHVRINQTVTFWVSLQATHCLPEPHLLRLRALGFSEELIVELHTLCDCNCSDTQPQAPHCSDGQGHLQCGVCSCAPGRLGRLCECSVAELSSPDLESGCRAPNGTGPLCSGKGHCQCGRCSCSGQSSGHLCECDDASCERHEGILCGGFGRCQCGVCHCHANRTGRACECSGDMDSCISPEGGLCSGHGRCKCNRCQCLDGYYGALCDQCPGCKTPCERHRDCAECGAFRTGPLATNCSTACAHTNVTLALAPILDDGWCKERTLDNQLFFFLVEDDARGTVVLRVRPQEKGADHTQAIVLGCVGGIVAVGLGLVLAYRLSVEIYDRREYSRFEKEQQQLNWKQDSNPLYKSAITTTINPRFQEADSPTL
Protocol: Human peripheral blood mononuclear cells (PBMC; fresh or frozen and thawed, for example in phosphate buffered saline with 2% FBS) are washed and resuspended in HEPES buffer (30 mM HEPES+[…]) with 1% BSA, with or without 1 mM MnCl₂ (depending on the experiment; Mn²⁺ is necessary for MAdCAM-1 binding) and plated into 96 well plates (10⁶cells/well). Cells are incubated with 10 microG/ml human IgG for 30 minutes on ice to block nonspecific binding. Cells are then incubated with serial dilutions of biotinylated anti-alpha4beta7 antibodies in 96 well plates for one hour on ice, followed by addition of 1:100 dilution of streptavidin-phycoerythrin (PE; Jackson ImmunoResearch Laboratories Inc., West Grove, Pa.), 4 microL CD3-Pacific Blue, CD4-PerCP-Cy5.5 and CD45RA-fluorescein isothiocyanate (FITC) (BD Biosciences, San Jose Calif.) for a final volume of 100 microL, and incubated for another hour on ice. Cells were washed twice with HEPES buffer (with or without MnCl₂, correspondingly) and then fixed in 200 microL HEPES buffer plus 0.5% paraformaldehyde (again, with or without MnCl₂, correspondingly). The percentage of positive alpha4beta7 antibody binding CD4+CD45RA-memory T cells is determined using a fluorescence activated cell sorter (FACS), for example, a BD™ LSR II benchtop flow cytometer (BD Biosciences, San Jose Calif.).

Row | EC50 [ng/mL] | Binder
1 | 6.3 | B1
2 | 5.1 | B2
3 | 9.3 | B3
4 | 32.9 | B4
5 | 4.9 | B5
6 | 5.6 | B6
7 | 32.6 | B7

Each binder was assayed against T1, human alpha4beta7 (assay: FACS on transfected 293 cells, 1 microG/ml, PE anti-human IgG).
Text: Point mutant constructs representing amino acid altering SNPs (a4b7(E97V); a4b7(R213S); a4b7(G629S; a4(V824A)b7; a4(Q878R)b7) in the extracellular domains of both alpha4 and beta7 were generated. Each point mutant construct was transfected to 293 cells along with the wild-type partner expression construct. Transfected 293 cells were first stained with 1 microG/ml of human IgG or anti-alpha4beta7 antibody, washed with PBS, and the stained with phycoerytherin conjugated secondary antibody goat-anti human IgG. After washing with PBS, cells were analyzed by fluorescence activated cell sorting, for example, with a FACSCalibur™ (BD Biosciences, San Jose Calif.).

Row | fluorescence staining intensity (geometric mean) | Binder
8 | 102 | B1
9 | 97 | B2
10 | 93 | B3
11 | 94 | B4
12 | 122 | B5
13 | 124 | B6
14 | 99 | B7
15 | 96 | B8

These binders were tested against a4(Q878R)b7 (human) (UniProt P13612) in the same assay as above.
Chain of a4(Q878R)b7 (human) (P13612 34-1032, chain 1 of 2): as the sequence (P13612 34-1032, chain 1 of 2) above
Chain of a4(Q878R)b7 (human) (P26010 20-798, chain 2 of 2, further chain): as the sequence (P26010 20-798, chain 2 of 2) above

Row | fluorescence staining intensity (geometric mean) | Binder
16 | 58 | B1
17 | 58 | B2
18 | 46 | B4
19 | 70 | B5
20 | 71 | B6
21 | 58 | B7
22 | 51 | B8

The binders below were run against a4b7(R213S) (human) (UniProt P13612) in the same assay as above.
Chain of a4b7(R213S) (human) (P13612 34-1032, chain 1 of 2): as the sequence (P13612 34-1032, chain 1 of 2) above
Chain of a4b7(R213S) (human) (P26010 20-798 R213S, chain 2 of 2, further chain): as the sequence (P26010 20-798, chain 2 of 2) above, with R194S counted along it

Row | fluorescence staining intensity (geometric mean) | Binder
23 | 59 | B1
24 | 58 | B2
25 | 46 | B4
26 | 31 | B5
27 | 31 | B6
28 | 38 | B7
29 | 33 | B8

Each binder was assayed against a4(V824A)b7 (human) (UniProt P13612) in the same assay as above.
Chain of a4(V824A)b7 (human) (P13612 34-1032 V824A, chain 1 of 2): as the sequence (P13612 34-1032, chain 1 of 2) above, with V791A counted along it
Chain of a4(V824A)b7 (human) (P26010 20-798, chain 2 of 2, further chain): as the sequence (P26010 20-798, chain 2 of 2) above

Row | fluorescence staining intensity (geometric mean) | Binder
30 | 88 | B1
31 | 85 | B2
32 | 67 | B4
33 | 102 | B5
34 | 110 | B6
35 | 86 | B7
36 | 77 | B8

Each binder was assayed against a4b7(E97V) (human) (UniProt P13612) in the same assay as above.
Chain of a4b7(E97V) (human) (P13612 34-1032, chain 1 of 2): as the sequence (P13612 34-1032, chain 1 of 2) above
Chain of a4b7(E97V) (human) (P26010 20-798 E97V, chain 2 of 2, further chain): as the sequence (P26010 20-798, chain 2 of 2) above, with E78V counted along it

Row | fluorescence staining intensity (geometric mean) | Binder
37 | 116 | B1
38 | 108 | B2
39 | 108 | B4
40 | 135 | B5
41 | 135 | B6
42 | 113 | B7
43 | 106 | B8

Each binder was assayed against a4b7(G629S) (human) (UniProt P13612) in the same assay as above.
Chain of a4b7(G629S) (human) (P13612 34-1032, chain 1 of 2): as the sequence (P13612 34-1032, chain 1 of 2) above
Chain of a4b7(G629S) (human) (P26010 20-798 G629S, chain 2 of 2, further chain): as the sequence (P26010 20-798, chain 2 of 2) above, with G610S counted along it

Row | fluorescence staining intensity (geometric mean) | Binder
44 | 68 | B1
45 | 65 | B2
46 | 59 | B4
47 | 80 | B5
48 | 80 | B6
49 | 64 | B7
50 | 59 | B8

Each binder was assayed against T1, human alpha4beta7 (assay: cell-based or functional assay).

Row | HUT78 Adhesion IC50 [ng/mL] | Binder
51 | 14.9 | B1
52 | 3.7 | B2
53 | 8.9 | B3
54 | 12.2 | B4
55 | 6.1 | B5
56 | 7.5 | B6
57 | 6.9 | B7
58 | 13.7 | B8

What follows are binders tested against T1, human alpha4beta7 (assay: FACS competition, blocks biotinylated MAdCAM-1-Fc binding to human CD4+CD45RA- memory T cells).
Protocol: PBMC (fresh or frozen as described previously) are washed and resuspended in HEPES buffer (30 mM HEPES+[…]) with 1% BSA and 1 mM MnCl. to a final concentration of 10⁷cells/ml. Cells are blocked as described previously; after blocking, cells are incubated with a serial dilution of anti-alpha4beta7 antibody (or appropriate control) in 96 well plates for 30 minutes on ice, and then with 0.3 microG/ml biotinylated MAdCAM-1-Fc protein for another one hour.
After two washes in HEPES buffer with 1 mM MnCl, cells are treated with 1:100 dilution of streptavidin-PE, 4 microL CD3-Pacific Blue, CD4-PerCP-Cy5.5 and CD45RA-FITC as described previously, in a final volume of 100 microL. After one hour incubation on ice, cells are washed twice with HEPES buffer with 1 mM MnCl and then fixed in 200 microL buffer plus 0.5% paraformaldehyde. The percentage of positive MAdCAM-1-Fc binding CD4+CD45RA-memory T cells is determined by fluorescence activated cell sorter (FACS) analysis, as described previously.

Row | IC50 [ng/mL] | Binder
59 | 8.7 | B1
60 | 23.2 | B2
61 | 14.1 | B3
62 | 103 | B4
63 | 6.2 | B5
64 | 6.2 | B6
65 | 99.6 | B7
66 | 77.6 | B8

Source: patent US20100254975A1 (Amgen, published 2010)
